These are literature values, as cited in publication PMC9489792.

As a reminder, the pKa is the negative logarithm of the acid dissociation constant.

In one series the target is Asp85 (UniProt position 98, WARYADWLFTT). As to conditions: not stated (presumably the dark/ground state with protonated Schiff base).
For a further series, the target named is Glu85 (UniProt position 98, WARYAEWLFTT). As to conditions: not stated (presumably the dark/ground state with protonated Schiff base).

Regarding “Bacteriorhodopsin (BR) (Halobacterium salinarum (organism inferred; the article only says BR / bacteriorhodopsin))”, the pKa with Asp85 is reported as 3.6.
With “Bacteriorhodopsin D85E mutant (BR-D85E) (Halobacterium salinarum (organism inferred; the article only says BR / bacteriorhodopsin); D85E)”, in the series with Glu85, the pKa was 6.5.
